Experimental data published in US20200339690A1.

Experiments:
human LILRA1 (human) = human LILRA1 (human) (UniProt O75019); assay: flow cytometry, LILRA1 CHOs
human LILRB2 (human) [1] = target: human LILRB2 (human) (UniProt Q8N423); assay: BLI Octet sandwich binning; competitor (antibody #1 on sensor) J-03
human LILRB2 (human) [2] = target: human LILRB2 (human) (UniProt Q8N423); assay: BLI Octet sandwich binning; competitor (antibody #1 on sensor) J-04
human LILRB2 (human) [3] = target: human LILRB2 (human) (UniProt Q8N423); assay: BLI Octet sandwich binning; competitor (antibody #1 on sensor) J-07
human LILRB2 (human) [4] = target: human LILRB2 (human) (UniProt Q8N423); assay: BLI Octet sandwich binning; competitor (antibody #1 on sensor) J-11
human LILRB2 (human) [5] = target: human LILRB2 (human) (UniProt Q8N423); assay: BLI Octet sandwich binning; competitor (antibody #1 on sensor) J-16
human LILRB2 (human) [6] = target: human LILRB2 (human) (UniProt Q8N423); assay: BLI Octet sandwich binning; competitor (antibody #1 on sensor) J-17
human LILRB2 (human) [7] = target: human LILRB2 (human) (UniProt Q8N423); assay: BLI Octet sandwich binning; competitor (antibody #1 on sensor) J-19
human LILRA5 (human) = human LILRA5 (human) (UniProt A6NI73); assay: flow cytometry, LILRA5 CHOs
human LILRB4 (human) = human LILRB4 (human) (UniProt Q8NHJ6); assay: flow cytometry, LILRB4 CHOs
human LILRA4 (human) = human LILRA4 (human) (UniProt P59901); assay: flow cytometry, LILRA4 CHOs
human LILRB2 (human) [8] = target: human LILRB2 (human) (UniProt Q8N423); assay: BLI ForteBio Octet Red96; antibody on anti-human capture sensor, LILRB2 at 50 nM and 5 nM
human LILRB2 (human) [9] = target: human LILRB2 (human) (UniProt Q8N423); assay: SPR, SierraSensor MASS-2; antibody captured on anti-human Fc chip, LILRB2 65 to 0.089 nM, triplicates
human LILRB2 (human) [10] = target: human LILRB2 (human) (UniProt Q8N423); assay: SPR, SierraSensor MASS-2; antibody captured on anti-human Fc chip, LILRB2 65 to 0.089 nM, duplicates
human LILRB2 (human) [11] = target: human LILRB2 (human) (UniProt Q8N423); assay: SPR, SierraSensor MASS-2; antibody captured on anti-human Fc chip, LILRB2 65 to 0.089 nM, duplicates; the reference itself

human LILRA1 (human), sequence (O75019 17-489 limits assumed): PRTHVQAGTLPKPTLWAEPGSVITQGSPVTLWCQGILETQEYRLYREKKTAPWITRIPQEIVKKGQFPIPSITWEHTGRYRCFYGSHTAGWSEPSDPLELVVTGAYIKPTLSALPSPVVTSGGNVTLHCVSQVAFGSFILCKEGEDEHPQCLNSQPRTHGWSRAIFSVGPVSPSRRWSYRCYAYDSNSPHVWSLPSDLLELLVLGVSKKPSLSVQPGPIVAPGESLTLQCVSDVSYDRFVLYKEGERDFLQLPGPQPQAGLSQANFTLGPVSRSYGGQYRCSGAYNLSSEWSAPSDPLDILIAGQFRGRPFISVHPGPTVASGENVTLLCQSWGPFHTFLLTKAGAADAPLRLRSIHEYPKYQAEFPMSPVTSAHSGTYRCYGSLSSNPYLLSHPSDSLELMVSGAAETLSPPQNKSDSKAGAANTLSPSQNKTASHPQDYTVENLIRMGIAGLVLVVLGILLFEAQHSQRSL
human LILRA5 (human), sequence (A6NI73 42-299 limits assumed): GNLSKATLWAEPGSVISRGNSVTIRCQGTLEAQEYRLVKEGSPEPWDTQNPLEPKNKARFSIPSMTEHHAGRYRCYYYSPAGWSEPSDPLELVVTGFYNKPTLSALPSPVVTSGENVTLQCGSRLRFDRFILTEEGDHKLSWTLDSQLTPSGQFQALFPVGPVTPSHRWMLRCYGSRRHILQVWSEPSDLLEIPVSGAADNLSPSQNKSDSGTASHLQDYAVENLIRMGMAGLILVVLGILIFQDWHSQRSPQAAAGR
human LILRA4 (human), sequence (P59901 other isoform, or with tags, fused parts or gaps limits assumed): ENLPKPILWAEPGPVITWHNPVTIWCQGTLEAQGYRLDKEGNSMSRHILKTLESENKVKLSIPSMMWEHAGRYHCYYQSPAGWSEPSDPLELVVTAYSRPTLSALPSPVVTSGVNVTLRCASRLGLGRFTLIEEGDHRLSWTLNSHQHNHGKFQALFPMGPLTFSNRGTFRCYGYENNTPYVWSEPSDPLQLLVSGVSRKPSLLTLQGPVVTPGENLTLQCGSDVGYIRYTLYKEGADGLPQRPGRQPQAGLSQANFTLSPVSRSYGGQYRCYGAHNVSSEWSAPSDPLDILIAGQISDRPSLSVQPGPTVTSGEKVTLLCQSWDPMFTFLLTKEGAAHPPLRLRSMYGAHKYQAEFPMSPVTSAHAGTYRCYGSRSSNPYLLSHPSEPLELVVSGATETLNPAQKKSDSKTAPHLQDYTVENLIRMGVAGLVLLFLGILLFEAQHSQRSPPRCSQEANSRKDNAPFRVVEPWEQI

Binder | response of antibody #2 (human LILRB2 (human) [1]) | response of antibody #2 (human LILRB2 (human) [2]) | response of antibody #2 (human LILRB2 (human) [3]) | response of antibody #2 (human LILRB2 (human) [4]) | response of antibody #2 (human LILRB2 (human) [5]) | response of antibody #2 (human LILRB2 (human) [6]) | response of antibody #2 (human LILRB2 (human) [7]) | also measured
J-17 (antibody, human IgG4 S228P, kappa, V domains shown) VH: QIQLVQSGPELKKPGETVKISCKASGYTFTTYGLSWVKQTPGKGLKWMGWINTYSGVPTYTDDFKGRFAFSLETSASTAYLQINNLKNEDTATYFCARPYDFDQVGFAYWGQGTLVTVSA VL: SIVMTQTPKFLLVSAGDRVSITCKASQTVSSDVAWYQQKAGQSPKLLIYYASNRYTGVPDRFTGSGYGTDFTFTISTVQAEDLAVYFCQQDYSSPFTFGGGSKLEIKR | 0.05 | 0.42 | 0.04 | -0.39 | 0.09 | -0.11 | -0.21 | binding (fold over iso) (fold over iso) (human LILRA1 (human)): 7.31
J-19.h4 (antibody, human IgG4 S228P, kappa, V domains shown) VH: QVTLKESGPALVKPTHTLTLTCTFSGFSLNTYAMGVSWIRQPPGKALEWLASIWWNGNKYNNPSLKSRLTISKDTSKNQVVLTMTNMDPEDTATFYCAHSRIIRFTDYVMDAWGRGTTVTVSS VL: DIVMTQSPSSLSASVGDTVTITCRASEDIYNDLAWYQQKPGKAPQLLLYNANSLHTGVPSRFSGSGSGTDYTLTISTLQPEDFATYYCQQYYDYPLTFGPGTKVHIKR |  |  |  |  |  |  |  | binding (fold over iso) (fold over iso) (human LILRA5 (human)): 2.14; binding (fold over iso) (fold over iso) (human LILRB4 (human)): 2.02
J-04 (antibody, human IgG4 S228P, kappa, V domains shown) VH: QVQLQQSGAELVRPGASVTLSCKASGYTFADYEIHWVKQTPVHGLEWIGAIDPETGGTAYNQKFKGKAILTADKSSSTAYMELRSLTSEDSAVYYCTRYYDYDDAMDYWGQGTSVTVSS VL: QIVLTQSPAIMSASPGEKVTMTCSASSSVSFMHWYQQKSGTSPKRWIYGTSKLASGVPARFSGSGSGTSYSLTISSMEAEDAATYYCQQWNGNPFTFGSGTKLETKR | -0.07 | -0.1 | -0.3 | 0.54 | -0.31 | 0.46 | 0.54 | binding (fold over iso) (fold over iso) (human LILRA4 (human)): 2.07
J-11 (antibody, human IgG4 S228P, kappa, V domains shown) VH: QVQLQQSGAELMKPGASVKLSCKATGYILTGYWIEWVKQRPGHGLEWIGEILPGSGSTNYNENFKGKATFTADTSSNTAYMQLSSLTTEDSAIYYCARAVLGYFDYWGQGTTLTVSS VL: DIVMTQSHKFMSTSVGDRVSITCKASQDVSTAVAWYQQKPGQSPKLLIYWASTRHTGVPDRFTGSGSGTDYTLTISSVQAEDLALYYCHQHYSTYTFGGGTKLEIKR | 0.01 | 0.51 | 0.1 | -0.24 | 0.3 | -0.27 | 0.28 | 
J-19.h5 (antibody, human IgG4 S228P, kappa, V domains shown) VH: QITLKESGPTLVKPTQTLTLTCTFSGFSLNTYAMGVSWIRQPPGKALEWLASIWWNGNKYNNPSLKSRLTVTKDTSKNQVVLTMTNMDPVDTATYYCAHSRIIAFTDYVMDAWGQGTLVTVSS VL: DIQMTQSPSSLSTSVGDRVTITCRASEDIYNDLAWYQQKPGKAPKLLIYNANSLHTGVASRFSGSGSGTDFTFTISSLQPEDVATYFCQQYYDYPLTFGQGTKLEIKR |  |  |  |  |  |  |  | fold higher affinity compared to J-19.h1 (human LILRB2 (human) [8]): 2 fold; Fold difference over J-19.h1 (human LILRB2 (human) [9]): 1.91 fold; Kd (human LILRB2 (human) [9]): 1.31 nM; koff (human LILRB2 (human) [9]): 0.00115 s⁻¹; kon (human LILRB2 (human) [9]): 876000 M⁻¹ s⁻¹
J-19.h6 (antibody, human IgG4 S228P, kappa, V domains shown) VH: QITLKESGPTLVKPTQTLTLTCTFSGFSLNTYAMGVSWIRQPPGKALEWLASIWWNGNKYNNPSLKSRLTVTKDTSKNQVVLTMTNMDPVDTATYYCAHSRIIDFTDYVMDAWGQGTLVTVSS VL: DIQMTQSPSSLSTSVGDRVTITCRASEDIYNDLAWYQQKPGKAPKLLIYNANSLHTGVASRFSGSGSGTDFTFTISSLQPEDVATYFCQQYYDYPLTFGQGTKLEIKR |  |  |  |  |  |  |  | Fold difference over J-19.h1 (human LILRB2 (human) [9]): 3.47 fold; Kd (human LILRB2 (human) [9]): 0.718 nM; koff (human LILRB2 (human) [9]): 0.000592 s⁻¹; kon (human LILRB2 (human) [9]): 825000 M⁻¹ s⁻¹
J-19.h7 (antibody, human IgG4 S228P, kappa, V domains shown) VH: QITLKESGPTLVKPTQTLTLTCTFSGFSLNTYAMGVSWIRQPPGKALEWLASIWWNGNKYNNPSLKSRLTVTKDTSKNQVVLTMTNMDPVDTATYYCAHSRIIEFTDYVMDAWGQGTLVTVSS VL: DIQMTQSPSSLSTSVGDRVTITCRASEDIYNDLAWYQQKPGKAPKLLIYNANSLHTGVASRFSGSGSGTDFTFTISSLQPEDVATYFCQQYYDYPLTFGQGTKLEIKR |  |  |  |  |  |  |  | Fold difference over J-19.h1 (human LILRB2 (human) [10]): 2.73 fold; Kd (human LILRB2 (human) [10]): 0.912 nM; koff (human LILRB2 (human) [10]): 0.000788 s⁻¹; kon (human LILRB2 (human) [10]): 865000 M⁻¹ s⁻¹
J-19.h1 (antibody, human IgG4 S228P, kappa, V domains shown) VH: QITLKESGPTLVKPTQTLTLTCTFSGFSLNTYAMGVSWIRQPPGKALEWLASIWWNGNKYNNPSLKSRLTVTKDTSKNQVVLTMTNMDPVDTATYYCAHSRIIRFTDYVMDAWGQGTLVTVSS VL: DIQMTQSPSSLSTSVGDRVTITCRASEDIYNDLAWYQQKPGKAPKLLIYNANSLHTGVASRFSGSGSGTDFTFTISSLQPEDVATYFCQQYYDYPLTFGQGTKLEIKR |  |  |  |  |  |  |  | Kd (human LILRB2 (human) [10]): 2.49 nM; koff (human LILRB2 (human) [10]): 0.00176 s⁻¹; kon (human LILRB2 (human) [10]): 705000 M⁻¹ s⁻¹; Fold difference over J-19.h1 (human LILRB2 (human) [11]): 1 fold
J-19 (antibody, human IgG4 S228P, kappa, V domains shown) VH: QVTLKESGPGILQPSHTLSLTCSFSGFSLNTYAMGVSWIRQPSGKGLEWLASIWWNGNKYNNPSLKSRLTVSKDTSNNQAFLKVTSVDTADTATYYCAHSRIIRFTDYVMDAWGQGASVTVSS VL: DIQMTQSPASLSTFLGEPVTIECRASEDIYNDLAWYQQKPGKSPQLLIYNANSLHTGVPSRFSGSGSGTQYSLKINSLQSEDVASYFCQQYYDYPLTFGSGTKLEIKR | 0.15 | 0.67 | 0.27 | 0.71 | 0.47 | -0.1 | -0.21 | 
